Paper doi:10.1101/2023.03.14.530545 (bioRxiv, 2023)

B1: 6xHis-CnTps1 (full-length Cryptococcus neoformans trehalose-6-phosphate synthase) (enzyme, UniProt Q6IVK9 1-670, looked up)
chain: MTTMSNDIPNSPTSTSFTGTFSPAATAANTAANARTSDAPSPTTSSSGPKLETSKEQRLIVVSNRLPVTISKDDNGEYHFKMSSGGLVSALSGCKKTMSFTWIGWPGKDIPMQDRETVNRRLLDEYNCYPVYLSDELADSHYNGSFSNSILWPLFHYHPGEMNFDAAHWLAYREANMRFADVVSSLVQAGDMVWVQDYHLMLLPMLLRSMITGESAQGEMVRQELGRVKEGVDDTVVKEVLKMGPGVAQAEDEGVEMLDDVEEEGGEMDVKSSPKRPHYARGMSTFQKQELVAKEKGKEGIRIGFFLHTPFPSSEIYRILPVRREILLGVLQCDLIGFHTYDYARHFLSSCTRILGLETQPNGIEFDGRYCQVGTFPIGIDPNQFIEGLQKESIVKRLRSLEARFEGVKVIIGVDRLDYIKGIPQKLQALETFLTQHPEWIGKVVLVQLAIPSRQDVEEYQDLRACVNELVGRINGRFGTVESVPIHYMHKSVPFEELTAMYALADACLVTSTRDGMNLVAYEYISSQAERHGSMILSEFAGAAQSFNGSLLINPWDVQSTADAINQALTLSPQQRKTNWQKLFNYVSKYTAEAWGVSFVNELNRLSGQRPSGPTGLAGRRKSGSLSRTSSKASIQRRKSSQSGIVTGLGAAAGAAVNWAQAQVQGGSQT

Key:
[1] = molecular target: CnTps1 ΔIDD (Cryptococcus neoformans var. grubii strain H99 | Candida albicans) (UniProt Q6IVK9); experiment: SEC
cryo-EM structure = molecular target: the molecule itself; experiment: cryo-EM structure

| Molecule | stoichiometry N [1] | stoichiometry N (cryo-EM structure) |
| --- | --- | --- |
| CnTps1 ΔIDD (from UniProt Q6IVK9 1-208; Q6IVK9 301-669) (enzyme) | 4 | – |
| B1 | – | 4 |
